T1: SNTG1, Q9NSN8
T1 sequence (Q9NSN8 52-150, limits assumed, looked up): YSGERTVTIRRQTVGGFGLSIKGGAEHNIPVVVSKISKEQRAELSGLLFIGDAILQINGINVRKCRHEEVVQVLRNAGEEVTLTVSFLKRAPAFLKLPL

T2: MPP7, Q5T2T1
T2 sequence (Q5T2T1 134-230, limits assumed, looked up): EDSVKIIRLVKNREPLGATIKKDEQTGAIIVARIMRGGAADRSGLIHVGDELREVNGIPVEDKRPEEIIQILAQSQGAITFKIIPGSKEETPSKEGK

T3: LIN7A, O14910
T3 sequence (O14910 103-200, limits assumed, looked up): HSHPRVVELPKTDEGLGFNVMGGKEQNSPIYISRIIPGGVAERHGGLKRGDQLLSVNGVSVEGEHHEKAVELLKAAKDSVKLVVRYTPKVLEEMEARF

T4: RAPGEF6, Q8TEU7
T4 sequence (Q8TEU7 525-625, limits assumed, looked up): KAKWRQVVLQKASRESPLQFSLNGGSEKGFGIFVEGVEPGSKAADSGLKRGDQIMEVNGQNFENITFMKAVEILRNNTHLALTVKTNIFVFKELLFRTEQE

T5: APBA1_1, Q02410
T5 sequence (Q02410 651-752, limits assumed, looked up): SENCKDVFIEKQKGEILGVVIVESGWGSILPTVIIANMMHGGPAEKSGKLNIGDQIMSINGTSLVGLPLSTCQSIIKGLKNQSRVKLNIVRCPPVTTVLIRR

T6: MPP6, Q9NZW5
T6 sequence (Q9NZW5 125-219, limits assumed, looked up): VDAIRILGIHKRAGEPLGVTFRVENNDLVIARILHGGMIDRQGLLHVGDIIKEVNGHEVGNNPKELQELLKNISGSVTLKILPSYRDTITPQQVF

T7: DLG3_3, Q92796
T7 sequence (Q92796 374-475, limits assumed, looked up): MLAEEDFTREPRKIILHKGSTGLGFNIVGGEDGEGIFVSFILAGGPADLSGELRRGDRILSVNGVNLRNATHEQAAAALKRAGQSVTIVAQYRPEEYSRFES

T8: GRIP1_4, Q9Y3R0
T8 sequence (Q9Y3R0 467-571, limits assumed, looked up): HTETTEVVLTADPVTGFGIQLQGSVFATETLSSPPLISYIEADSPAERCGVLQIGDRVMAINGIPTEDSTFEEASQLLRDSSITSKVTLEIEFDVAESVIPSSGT


What was measured:
Test in all cases: holdup assay
Design in all cases: key: below the threshold = too weak to quantify, mostly under pKd 3.1 to 4
Settings in all cases: plain residues with an end cap or a label only (N-terminal biotin on a linker: ado-ado)
SNTG1, Q9NSN8 = biological target: T1, SNTG1, Q9NSN8
GRIP2_5, Q9C0E4 = biological target: GRIP2_5, Q9C0E4
GRIP2_5, Q9C0E4, sequence (Q9C0E4 544-642): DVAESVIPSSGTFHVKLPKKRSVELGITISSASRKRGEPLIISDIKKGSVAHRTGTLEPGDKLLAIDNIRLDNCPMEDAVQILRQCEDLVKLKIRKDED

MPP7, Q5T2T1 = biological target: T2, MPP7, Q5T2T1
Inadl_9, Q8NI35 = biological target: Inadl_9, Q8NI35
Inadl_9, Q8NI35, sequence (Q8NI35 1530-1615): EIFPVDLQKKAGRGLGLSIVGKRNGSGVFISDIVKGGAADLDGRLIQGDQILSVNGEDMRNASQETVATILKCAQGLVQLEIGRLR

LNX1_1, Q8TBB1 = biological target: LNX1_1, Q8TBB1
LNX1_1, Q8TBB1, sequence (Q8TBB1 261-371): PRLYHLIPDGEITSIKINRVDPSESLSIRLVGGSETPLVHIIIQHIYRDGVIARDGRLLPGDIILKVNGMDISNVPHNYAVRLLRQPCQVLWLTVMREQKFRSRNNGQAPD

MAST1, Q9Y2H9 = biological target: MAST1, Q9Y2H9
MAST1, Q9Y2H9, sequence (Q9Y2H9 962-1065): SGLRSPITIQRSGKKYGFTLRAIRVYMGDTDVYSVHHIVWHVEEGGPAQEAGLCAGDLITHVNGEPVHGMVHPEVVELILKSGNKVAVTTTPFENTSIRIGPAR

LIN7A, O14910 = biological target: T3, LIN7A, O14910
LDB3, O75112 = biological target: LDB3, O75112
LDB3, O75112, sequence (O75112 1-94): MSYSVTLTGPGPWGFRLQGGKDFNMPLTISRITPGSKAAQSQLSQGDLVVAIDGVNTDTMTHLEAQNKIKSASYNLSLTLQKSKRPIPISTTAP

FRMPD2_1, Q68DX3 = biological target: FRMPD2_1, Q68DX3
FRMPD2_1, Q68DX3, sequence (Q68DX3 770-861): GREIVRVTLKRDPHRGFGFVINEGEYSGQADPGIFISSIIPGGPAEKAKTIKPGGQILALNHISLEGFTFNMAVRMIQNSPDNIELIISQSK

LIMK2, P53671 = biological target: LIMK2, P53671
LIMK2, P53671, sequence (P53671 143-248): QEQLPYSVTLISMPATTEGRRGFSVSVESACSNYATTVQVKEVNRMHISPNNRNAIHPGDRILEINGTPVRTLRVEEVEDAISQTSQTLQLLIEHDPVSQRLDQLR

IL16_3, Q14005 = biological target: IL16_3, Q14005
IL16_3, Q14005, sequence (Q14005 1107-1207): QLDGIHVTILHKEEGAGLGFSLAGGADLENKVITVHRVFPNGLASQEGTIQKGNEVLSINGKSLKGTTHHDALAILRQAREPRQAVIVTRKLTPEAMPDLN

GRIP2_4, Q9C0E4 = biological target: GRIP2_4, Q9C0E4
GRIP2_4, Q9C0E4, sequence (Q9C0E4 446-548): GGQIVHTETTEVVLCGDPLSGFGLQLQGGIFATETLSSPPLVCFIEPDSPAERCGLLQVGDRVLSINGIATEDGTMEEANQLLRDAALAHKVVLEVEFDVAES

HTRA2, O43464 = biological target: HTRA2, O43464
HTRA2, O43464, sequence (O43464 355-458): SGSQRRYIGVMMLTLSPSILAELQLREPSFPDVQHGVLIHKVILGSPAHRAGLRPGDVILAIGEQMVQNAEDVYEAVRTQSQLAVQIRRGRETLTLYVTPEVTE

FRMPD3, Q5JV73 = biological target: FRMPD3, Q5JV73
FRMPD3, Q5JV73, sequence (Q5JV73 12-100): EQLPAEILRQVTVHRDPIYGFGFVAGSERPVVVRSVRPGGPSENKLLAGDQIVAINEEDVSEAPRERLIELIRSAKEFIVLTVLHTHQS

RAPGEF6, Q8TEU7 = biological target: T4, RAPGEF6, Q8TEU7
GRIP2_6, Q9C0E4 = biological target: GRIP2_6, Q9C0E4
GRIP2_6, Q9C0E4, sequence (Q9C0E4 648-740): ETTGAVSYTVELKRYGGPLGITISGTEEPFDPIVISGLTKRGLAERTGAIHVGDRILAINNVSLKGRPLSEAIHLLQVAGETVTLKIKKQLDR

APBA1_1, Q02410 = biological target: T5, APBA1_1, Q02410
PDZRN4_1, Q6ZMN7 = biological target: PDZRN4_1, Q6ZMN7
PDZRN4_1, Q6ZMN7, sequence (Q6ZMN7 213-318): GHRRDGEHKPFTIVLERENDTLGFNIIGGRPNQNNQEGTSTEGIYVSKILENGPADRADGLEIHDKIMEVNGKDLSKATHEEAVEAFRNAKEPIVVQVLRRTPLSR

HTRA1, Q92743 = biological target: HTRA1, Q92743
HTRA1, Q92743, sequence (Q92743 360-477): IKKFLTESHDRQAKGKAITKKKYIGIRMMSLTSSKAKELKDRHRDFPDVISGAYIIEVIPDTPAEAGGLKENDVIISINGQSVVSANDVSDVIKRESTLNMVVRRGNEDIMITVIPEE

MAGI1_1, Q96QZ7 = biological target: MAGI1_1, Q96QZ7
MAGI1_1, Q96QZ7, sequence (Q96QZ7 1-106): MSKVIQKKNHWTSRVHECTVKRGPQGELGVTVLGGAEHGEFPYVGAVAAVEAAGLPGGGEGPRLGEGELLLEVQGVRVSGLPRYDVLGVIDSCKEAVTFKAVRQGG

MPP6, Q9NZW5 = biological target: T6, MPP6, Q9NZW5
LNX1_3, Q8TBB1 = biological target: LNX1_3, Q8TBB1
LNX1_3, Q8TBB1, sequence (Q8TBB1 500-596): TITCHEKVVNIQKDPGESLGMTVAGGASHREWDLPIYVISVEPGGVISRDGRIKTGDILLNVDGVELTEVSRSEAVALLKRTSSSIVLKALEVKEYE

DLG3_3, Q92796 = biological target: T7, DLG3_3, Q92796
IL16_4, Q14005 = biological target: IL16_4, Q14005
IL16_4, Q14005, sequence (Q14005 1229-1329): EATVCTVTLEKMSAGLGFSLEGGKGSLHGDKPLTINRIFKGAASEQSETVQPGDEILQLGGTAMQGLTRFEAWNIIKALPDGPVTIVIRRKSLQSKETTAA

NHERF4_4, Q86UT5 = biological target: NHERF4_4, Q86UT5
NHERF4_4, Q86UT5, sequence (Q86UT5 464-550): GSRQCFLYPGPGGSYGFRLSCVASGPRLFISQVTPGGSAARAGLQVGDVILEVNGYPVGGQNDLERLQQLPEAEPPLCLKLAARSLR

MAGI1_2, Q96QZ7 = biological target: MAGI1_2, Q96QZ7
MAGI1_2, Q96QZ7, sequence (Q96QZ7 456-580): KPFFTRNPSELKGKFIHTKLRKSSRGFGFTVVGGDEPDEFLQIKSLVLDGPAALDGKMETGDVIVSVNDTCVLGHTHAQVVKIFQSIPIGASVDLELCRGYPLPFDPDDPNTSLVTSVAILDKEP

GRIP1_4, Q9Y3R0 = biological target: T8, GRIP1_4, Q9Y3R0
CASK, O14936 = biological target: CASK, O14936
CASK, O14936, sequence (O14936 487-570): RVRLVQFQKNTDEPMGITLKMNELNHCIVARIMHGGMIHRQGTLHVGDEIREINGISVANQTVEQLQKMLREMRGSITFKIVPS

DLG1_3, Q12959 = biological target: DLG1_3, Q12959
DLG1_3, Q12959, sequence (Q12959 457-571): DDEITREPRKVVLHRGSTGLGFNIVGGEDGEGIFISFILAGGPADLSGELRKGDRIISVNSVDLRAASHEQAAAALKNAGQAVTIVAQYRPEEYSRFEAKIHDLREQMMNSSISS

pKd (SNTG1, Q9NSN8) | pKd (GRIP2_5, Q9C0E4) | pKd (MPP7, Q5T2T1) | pKd (Inadl_9, Q8NI35) | pKd (LNX1_1, Q8TBB1) | pKd (MAST1, Q9Y2H9) | pKd (LIN7A, O14910) | pKd (LDB3, O75112) | pKd (FRMPD2_1, Q68DX3) | pKd (LIMK2, P53671) | pKd (IL16_3, Q14005) | pKd (GRIP2_4, Q9C0E4) | pKd (HTRA2, O43464) | pKd (FRMPD3, Q5JV73) | pKd (RAPGEF6, Q8TEU7) | pKd (GRIP2_6, Q9C0E4) | pKd (APBA1_1, Q02410) | pKd (PDZRN4_1, Q6ZMN7) | pKd (HTRA1, Q92743) | pKd (MAGI1_1, Q96QZ7) | Binder | further results
below the threshold | below the threshold | below the threshold | below the threshold | below the threshold | 4.09 | below the threshold | below the threshold | below the threshold | below the threshold | below the threshold | below the threshold | below the threshold | below the threshold | below the threshold | below the threshold | below the threshold | below the threshold | 3.62 | below the threshold | KEKASTETEC [TRPM1, Q7Z4N2] | pKd (MPP6, Q9NZW5): below the threshold; pKd (LNX1_3, Q8TBB1): below the threshold; pKd (DLG3_3, Q92796): below the threshold; pKd (IL16_4, Q14005): below the threshold; pKd (NHERF4_4, Q86UT5): below the threshold; pKd (MAGI1_2, Q96QZ7): below the threshold; pKd (GRIP1_4, Q9Y3R0): below the threshold; pKd (CASK, O14936): below the threshold; pKd (DLG1_3, Q12959): below the threshold
below the threshold | below the threshold | below the threshold | 3.64 | below the threshold | 3.68 | below the threshold | below the threshold | below the threshold | below the threshold | below the threshold | below the threshold | 3.72 | below the threshold | below the threshold | below the threshold | 3.88 | below the threshold | 4.15 | below the threshold | MQILSKPEFI [NPSR1, Q6W5P4] | pKd (MPP6, Q9NZW5): below the threshold; pKd (LNX1_3, Q8TBB1): below the threshold; pKd (DLG3_3, Q92796): below the threshold; pKd (IL16_4, Q14005): 3.7; pKd (NHERF4_4, Q86UT5): below the threshold; pKd (MAGI1_2, Q96QZ7): below the threshold; pKd (GRIP1_4, Q9Y3R0): below the threshold; pKd (CASK, O14936): below the threshold; pKd (DLG1_3, Q12959): below the threshold
4.14 | below the threshold | below the threshold | 3.68 | below the threshold | 4.16 | below the threshold | below the threshold | below the threshold | below the threshold | below the threshold | below the threshold | 3.93 | below the threshold | below the threshold | below the threshold | below the threshold | 3.64 | 5.5 | below the threshold | KIEDVEITLV [FCHSD2, O94868] | pKd (MPP6, Q9NZW5): 3.74; pKd (LNX1_3, Q8TBB1): below the threshold; pKd (DLG3_3, Q92796): below the threshold; pKd (IL16_4, Q14005): below the threshold; pKd (NHERF4_4, Q86UT5): below the threshold; pKd (MAGI1_2, Q96QZ7): below the threshold; pKd (GRIP1_4, Q9Y3R0): below the threshold; pKd (CASK, O14936): below the threshold; pKd (DLG1_3, Q12959): 3.59

Reference: paper PMC9482650, “Quantitative fragmentomics allow affinity mapping of interactomes” (Nature Communications, 2022)
